Measured values: the DeepSol protein solubility set

Assay: soluble on expression in E. coli; label from the status in PepcDB or PDB records

| Sequence | soluble on expression in E. coli |
| --- | --- |
| MSTDIDCIVIGAGVVGLAIARALAAGGHEVLVAEAAEGIGTGTSSRNSEVIHAGIYYPADSLKARLCVRGKHLLYEYCAARGVPHQRLGKLIVATSDAEASQLDSIARRAGANGVDDLQHIDGAAARRLEPALHCTAALVSPSTGIVDSHALMLAYQGDAENDGAQLVFHTPLIAGRVRPEGGFELDFGGAEPMTLSCRVLINAAGLHAPGLARRIEGIPRDSIPPEYLCKGSYFTLAGRAPFSRLIYPVPQHAGLGVHLTLDLGGQAKFGPDTEWIATEDYTLDPRRADVFYAAVRSYWPALPDGALAPGYTGIRPKISGPHEPAADFAISGPASHGVAGLVNLYGIESPGLTASLAIAEETLARLAALEHHHHHH | soluble |
| MAHHHHHHMTTVLNRRFDVLCHSGTCPSYLIDVLSLLVAHANDTELFKTELRKGDGGEFGAAATGAGSAHATSSTGPASRTDRAVGEARERQAADRRTQLMYKQVEDPEVLDDALRASHETVLIAAERSLQTYTEDLKHINDIAMATSAKQLRAMRVETQQQMEAFRDRVCGSVVAQTKEELEVMRSELAASVRADVSDMVRQLHQVSFSTQQQLQQLTSSYTDFVAQAHDALTLAPLADAYEAVKTVEYMQEQLKCIEAAATTRSDVETLEERLKDLESIVTTLGSVAKTPDVGAAAAAREGFSVNVPPPLSLSQQKPVLSNRSASHRSQTPKCTSPLPLHLHVSRSASAKGRPSSPPPASPGPPAQRTLAERLGVAVEAAEDGVVLAEVLPGSAAAAHRLGVGHIISHVGRTAVKTPAAFEEALRGIEGQAVKITAYDPFNGRVRVLTAQPL | not soluble |
| MSLKKIDGHAHIVDTIAGFNGKGRLNALGNGYAIWDDGDLIKLIPDEYGDKAFTAEAFLKYMDANGVDKAVILQGHLNGYQNYYTHLAIKRYPERFTGAFSVDPFADNAMQIVKRHVEVLGFRAIKFEISQGGGIHGYRGQKTPFRLDTDPHVSRILTYLLDYPGFVVTVDYGNWDQISHQPDAIANLARLYTSLDFVVCHLSFPHVEHSNRLRAELNMWKNFNNIYTDISAIQDIDAPDSFPFPKSEQNVRIAKEVLGAKRIIWGTDSPWSATFNTYEELATWLENVDIFSQEELEDVMYNNAERVYFKEEHVKANRAGIDDTTKELNLYEGHHHHHH | soluble |
| MTDARTTVVVITHNRCAEVLRTLDRLAELPERPAVIVTDNGSTDGTAAAVARHHPGVRLLRSGRNLGAVGRNLAVRQVTTPYVAFCDDDSWWAPGSLSGAADLLDRYPAVGSVTARILVEPEGTEDPIVEELRDSPVPRPDWLPGPALGSFLAAATVLRTDAFRAAGGFHPRLWLGGEEELLAADLAANGWWLTYAGQLTIHHHPSGVRDSTVRRSHGIRNTLWFTWLRRPVGPALRRTLHLARTVPRDTASLRAFAEATAALPWVLRERRVLPPEVEARLRALEPAQRDSTARSYTGLEHHHHHH | not soluble |
| MIEIKVPELAESITEGTISQWLLNVGDKVEKGGSVVELETDKVNVEIIAEDSGIVSKLLGEPGDTVEVGATIAILDANGAPVAVSTPAPAEQSKQETAEAPKAAAPSAEQTATLQGLPNTNRPIASPAARKMARELGIDLNDVRSTDPLGRVRPHDVQAHAAAPKEAPAAPKSPAPAPVAKTEFEKPVERVKMSRRRQTIAKRLVEVQQTSAMLTTFNEVDMTAIMELRKERKDAFEKKHDVRLGFMSFFTKAVVAALKQFPLLNAEIQGDELIIKKFYDIGIAVAAPDGLVVPVVRDANQLNFAEIESEIRELGKKARDNKLSLKELQGGTFTITNGGVFGSLMSTPILNSPQVGILGMHKIQVRPVAIDNERMENRPMMYIALSYDHRIVDGKEAVSFLVAVKDMLEDPKSLLLEG | not soluble |
| AKDNYGKLPLIQSRDSDRTGQKRVKFVDLDEAKDSDKEVLFRARVHNTRQQGATLAFLTLRQQASLIQGLVKANKEGTISKNMVKWAGSLNLESIVLVRGIVKKVDEPIKSATVQNLEIHITKIYTISETPEALPILLEDASRSEAEAEAAGLPVVNLDTRLDYRVIDLRTVTNQAIFRIQAGVCELFREYLATKKFTEVHTPKLLGAPSEGGSSVFEVTYFKGKAYLAQSPQFNKQQLIVADFERVYEIGPVFRAENSNTHRHMTEFTGLDMEMAFEEHYHEVLDTLSELFVFIFSELPKRFAHEIELVRKQYPVEEFKLPKDGKMVRLTYKEGIEMLRAAGKEIGDFEDLSTENEKFLGKLVRDKYDTDFYILDKFPLEIRPFYTMPDPANPKYSNSYDFFMRGEEILSGAQRIHDHALLQERMKAHGLSPEDPGLKDYCDGFSYGCPPHAGGGIGLERVVMFYLDLKNIRRASLFPRDPKRLRP | soluble |
| MGSDKIHHHHHHMSKIKRGVSLYSFQEELFLGRMNVEDCVSFAASIGATGIEILPEQNMPTFPNLSDAQVEEWKAMVARHGCHFTAYDMFLDTKLRKDRLMSDDEQVESIVRDLRLCNRLGIRNMRVLVFVRPDILGRCVPYAEELDVHMGVEVHAPWHLEHAWILRTIEEADRLGTKHLGILPDMGIFMKHYPPAFRARFERQGARPEVTQFIVDQHEAKIMAEYTIYEVAVKMGGNKAEVAMAETLRHAPYANPKRIADYAPYFHHIQAKFYEMDEDCTDPSIAYDEVIDALVGCGWEGTLSSEYEGNRWIQDVHEVDSREQVRRQHVMFERLIVQSEARHAGKEAALCSTST | not soluble |
| MNQYQKTTERKKQAIIQAALHLFKEKGFKGTSIKSIAKAAQVSPVSIYNYFESKESLVDLCVNKLFEEITQEAENILTSEIDFKMKLCQALALCQKKMSHQISVYFKEKTIKDPTFSKLLTKAIVAKKREIYRSYIKLGKDEGVIAKDLSTELILNVMDALNSIGNQLSESENLGEEIEQIHRLFLYGIFGKI | not soluble |
| MGSDKIHHHHHHAMFPERYVSEESAARADTINFRLASAGEAKRLIAAKDSYTANWSPFDIAARLENPEGKREDLVSLAVREVREWTAEEAQQIEQIRKNLNDTIRKYGYRIPFPKEIVLVKTTMKDEGGAGGYTRSNWIALTDATFQRGTEASHTRLLVHETFHILTRLNPGFKKKLYRAIDFNILPKEIEFPEDIRKSRISNPDVSRCDSYATFTIDGKPQNCTMIIYTNRPYTTGKFYQYINVGLIPLDESFKPLRESGKTVIYPLQKATDFFDKVGRNTGYVIDPEEVLADNFAIALLNTPNVHTPELQKKVQELLK | not soluble |
| MGSDKIHHHHHHMAFTPFPPRQPTASARLPLTLMTLDDWALATITGADSEKYMQGQVTADVSQMAEDQHLLAAHCDAKGKMWSNLRLFRDGDGFAWIERRSVREPQLTELKKYAVFSKVTIAPDDERVLLGVAGFQARAALANLFSELPSKEKQVVKEGATTLLWFEHPAERFLIVTDEATANMLTDKLRGEAELNNSQQWLALNIEAGFPVIDAANSGQFIPQATNLQALGGISFKKGCYTGQEMVARAKFRGANKRALWLLAGSASRLPEAGEDLELKMGENWRRTGTVLAAVKLEDGQVVVQVVMNNDMEPDSIFRVRDDANTLHIEPLPYSLEE | soluble |
| MSLGSERWITVQLVGEIMGTSFERGISQYPNVNDEVHLVTESDLEAIHGVEEQGQVVVGRLASADGIPVKLDLDKMVTRHSAVLGSTGSGKSTTVASLLRSIVSGADGSDAGFPSSRILMLDIHGEYSHALSDVAKVFRISPEANQTQLHIPFWALDPNELLCFLMGRLDDKPLTAILDKVYEYKHDQAVAHPRAGLNVTSMTSDTPVPFSLKKLWLELLEPEVKTWEDTARSQPALLEAGNADNVTPPQYKPHGAGATPPFINQIGVLGIRRPLDQLRSRLLDKKYDFLLHPGDWEPDLDGNVTKDLDALLEEWLGHDKPITILDLSGVPSLVLEQLIGAILRILYEALFWGRDRSEGHHHHHH | soluble |
| ARGVKGHVRVLANTTAMTEFMPAVLARYLAAHPDVNVELRERLSYLVVRAVADGSADIGVVAGCAPDQKLQFIPYRKDRLVVVTPAGHRLAAEESVAFADTLADDYVGLSEWSAIHPFLVQAAASLGRTFKFRVEVGNFEAVCRMIESG | not soluble |
| MKDLIIIGAGQAGLTMGYYLKQEGYNFLLLEAGNRVGDSWRNRYDSLQLFTPRSYSSLPGMALIGEKNEFPYKDEIATYLEEYARHFQLPVQLQTEVLKIRKEKGIFELHTSTEILQTKKVIIATGGFQQPFIPSVSANLSSHVFQIHSSQYKSPSQIPQGKVLVVGGGNSGMQIAVEFAKTHEVTMSISHPLTFLPLHFFRKSIFNWLEKLGLLYAEVSTKRGKWFQKRKDPLEHHHHHH | soluble |
| MASPISHSSHENASGKYGYGDESQHGKNFHQKAEHSGHEAKEKGYSQDGKAADHDALHKDAAEHKQNKEAHQSGSGNKYVDDASNYNKDVKTKTFGFFDYRYVQPQYHMEQYHTDEKHANKYAGDEHNAGQQHKDNGGYHADGHQGYDKAQEKHGASHTNYGNEDAGHKSKYDDNEGKYGDHTDGYYNKGYDNYGQGHDSESYQPSYYQPKPKYYGGHQSHYQPSARHSSPYQGDQYYGYEAPHY | not soluble |
| MLLKSHHSGGRKTRFLTVLDVGSSKIVCLIACLRPLKHAHYLHGRTHSMEILGFGVQRSRGIKSGVVMDIFAAEQSIRLAVDAAEKMAGLVVDSVIVNFSSSRLQSALINGVVSLNGREVTKRDIRVAFADVSRKAFNAERHVVHSVPVSYVLDGDKGISDPVGMIGDFFGVDVHVVTAETAALRNLETCINRAHLSVEAMVVTPFASGLAVLMNDEAHLGAACIDFGGGTTTFSVFSEGKFVHANALAVGGHHVTLDVARGFSMSLPEAERLKVVYGSALVTSADERHMVNVTEIGNEHREIQYPRAVLGRIIRARVEEILEMVRDCLNRSGFGHIIGKRVILTGGASQLTGLPEMARTILGRNVRIGRPLGISRLPSLAKGAAFTSAVGLLIYPQLVGFEEKTMQVAVNHLSTGTRGYFQRVGQWLRESF | not soluble |
| GPGSMNNRHSGSEKTPATQKKDSLAPSATNADITKVKICSGHTRPICHINYSNIIDGTFWLVTSCHDAKPMLRNGETGDWVGTFEGHKGAVYCSVFNEDATRLVTGSGDYSSMVWNAVTGDKLHTWSHPKYIKSCDWCGNKIATGCVDGLVRIFDAQAYDANPVCFDSTEKVNQVKATYFIDHTTMVTACENTIMKWDLRDTSLPYLRKEIPGLNFLEYTHSNSIVAAHEKSISFIDTTSLEIKSSFTTSDDIECASLSPNGQNVAAGSKLKAKEFTVDGTELESHRGHHGPIFHIRWAPDGKSFTSGAEDGMARIWPSHDIIETYDNEN | not soluble |
| MSFSDHFSAVAASYAKARPRYPQRWFRYLARIVPDRQRVWDCATGNGQAAIALAEYFSEVIGSDASAAQVRQARSHPRVQYLVFPAEATPLAPASLDLITVAQAAHWFDLPQFYIEAQRLLRPGGVIALWGYGLGSLNPAIDHVFNHFYRDWLDPYWPPERQWVEQAYEGLSFPFEPLPTPTFSMQCDWTLFDLLAYLRTWSGVQQFQRQRGFDPVWAIAPELQRVWGDPQRYRRITWPLFAKVGRWQPDRVRLEHHHHHH | not soluble |
| MIRELFEKEGFTLDEEQERKFSIYLQELLRWNKVHNLTSIKKPEEIVRRHFIDSVSVVRCFERIGLDLRGKHFADVGSGAGFPGVPLKIYLKDIKLTLIESVSKKCSFLEYLKIKLNEDYRVLCTRAEKVEEKFDVVLARALGEFEEVKEILEKLSIGYVFVYKGSKLKEEWLKDYKLCELSLSFMPKSYILWKKV | soluble |
| MLLTCRFTAATSRLSACTRSFSIDFSHEKPAPHQLEHVTTRLTETVPLMFRRRMDYTFYRKDVVCDDQIFSVEKRGIEQLMSHFGMIGTLGQVFLPHVEMEMLSVAPVIDEGTVRCRWRVKYVSFTRIIMNPRLLRFDYRMQNLSWFDGYSVLTVDGNGEVYKVTLQKMQQDEQKSLLTSTTEKLKEKLAPSAANN | not soluble |
| MSFSESRHNENCLIQEGALLFCEQAVVAPVSGDLVFRPLKIEVLSKLLAFIDGAGLVDTTYAESDKWVLLSPEFRAIWQDRKRCEYWFLQQIITPSPAFNKVLALLRKSESYWLVGYLLAQSTSGNTMRMLGEDYGVSYTHFRRLCSRALGGKAKSELRNWRMAQSLLNSVEGHENITQLAVNHGYSSPSHFSSEIKELIGVSPRKLSNIIQLADK | not soluble |
